The values below come from patent publication US20220315908A1, “NOVEL GARDNERELLA ENDOLYSINS AND USES THEREOF” (priority 2019, published 2022).

B1: H4B4: natural Gardnerella prophage endolysin from strain Gv5-1 (protein)
chain: MSKKGIDVSEWQGDIDFNAVKASGVEFVIIRAGYGIGCKDKWFEQNYRKAKTCGLDVGAYWYSYANSGFEAAEEAQSCVNMLSGKSFEYPVYFDLEEKSQLNRGRAFCDSLITSFCSKLETYGYYAGFYTSLSVVNNLVSAHVRDRYALWIAQWNTHCSYQGSYGLWQYSSSGSVPGVAGRVDMDYAYVDYPSIIKNVGLNGCKNGGSDQATRTSSIDEVAREVINGAWGNGNERKQRLTSAGYDYASVQNKVNKLLGVKAYRKSVDELAREVIRGTWGNGNERKQRLAQAGYDYDTVQKRVNELL
modifications: EL4_strain_Gv5-1
B2: H10B10: natural Gardnerella prophage endolysin from strain G30-4 (protein)
chain: MSKRGIDVSVWQGDIDFNAVKASGVEFVIIRAGYGIGHKDKWFEENYRKAKTVGLDVGAYWYSYASSAGEASEEAQSCVNILSGKSFEYPVYFDLEEKSQLNRGRDFCDSLITSFCNKLEACGYYAGFYTSLSVANNLVSSHVRDRYALWIAQWNTHCSYQGSYGLWQYSSSGSVNGIAGRVDMDYAYVDYPSVIKNAGLNGYKNGGSYTAPQISSIDEVAREVINGDWGNGNERKQRLTSAGYDYASVQNKVNELLGVKAYRKSVDELAREVIRGTWGNGSTRKQRLTQAGYDYNAVQKRVNELL
modifications: EL10_strain_G30-4
B3: H2B2: natural Gardnerella prophage endolysin from strain Gv18-4 (protein)
chain: MSKRGIDVSEWQGDIDFNAVKASGVEFVIIRAGYGIGCKDKWFEQNYRKAKTCGLDVGAYWYSYANSGFEAAEEAQSCVNMLSGKSFEYPVYFDLEEKSQLNRGRAFCDSLITGFCNKLESCGYYAGFYTSLSTANNLVSAHVRNRYALWIAQWNTHCSYQGSYGLWQYSSSGSVPGVAGRVDMDYAYVDYPSIIKNVGLNGCKNGGSDQAARTSSIDEVAREVINGAWGNGNERKQRLTSAGYDYASVQNKVNELLGVKACRKSVDEIAREVIRGTWGNGSTRKQRLTQAGYDYDTVQKRVNELL
modifications: EL2_strain_Gv18-4
B4: H1B1: natural Gardnerella prophage endolysin from strain HMP9231 (protein)
chain: MSKKGIDVSEWQGDIDFNAVKASGVEFVIIRAGYGIGCKDKWFEQNYRKAKTAGLDVGAYWYSYANSGFEAAEEAQSLMNMLSGKSFEYPVYFDLEEKSQLNRGRAFCDSLITSFCNKLEACGYYAGFYTSLSTANNLVSAHVRNRYALWIAQWNTHCNYQGSYGLWQYSSNGSVPGVAGRVDMDYAYVDYPSIIKNAGLNGCKNGGSDQAARTSSIDEVAREVINGAWGNGSTRKQRLTSAGYDYASVQNKVNELLGVKACRKSVDELAREVIRGAWGNGSTRKQRLAQAGYDYDTVQKRVNELL
modifications: EL1_strain_HMP9231
notes: natural Gardnerella prophage endolysin from strain HMP9231
B5: H3B3: natural Gardnerella prophage endolysin from strain Gv18-4 (protein)
chain: MSKKGIDVSVWQGDIDFNSVKASGVEFVIIRAGYGIGHKDKWFEENYRKAKTAGLDVGSYWYSYASSAGEASEEAQSCVNILSGKSFEYPIYFDLEEKSQLNRGRDFCDSLITSFCNKLEACGYYAGFYTSLSVANNLVSSHVRDRYALWIAQWNTHCSYQGSYGLWQYSSSGSVNGIAGRVDMDYAYVDYPSVIKNAGLNGYQNGGSYTAPQTSSIDEVAREVINGDWGNGNDRKNRLISAGYDYASVQNKVNELLGVKAYRKSVDELAREVIRGTWGNGSMRKHRLTQAGYDYDAVQKRVNELL
modifications: EL3_strain_Gv18-4
B6: H5B5: natural Gardnerella prophage endolysin from strain JCP7276 (protein)
chain: MSKKGIDVSEWQGDIDFNAVKASGVEFVIIRAGYGIGCKDKWFEQNYRKAKTAGLDVGAYWYSYANSSSEAAEEAQSCANMLSGKSFEYPVYFDLEEKSQLNRGRAFCDSLITGFCSKLEACGYYAGFYTSLSTANNLVSAHVRNRYALWIAQWNTHCSYQGSYGLWQYSSNGSVPGVAGRVDMDYAYKDYPSIIKNAGLNGCKNGGSDQAARTSSIDEVAREVINGAWGNGNERKQRLTQAGYDYTSVQNKVNKLLGVKACRKSVDELAREVIRGTWGNGNERKNRLTQAGYDYDTVQKRVNELL
modifications: EL5_strain_JCP7276
notes: natural Gardnerella prophage endolysin from strain JCP7276
B7: H7B7: natural Gardnerella prophage endolysin from strain AMD (protein)
chain: B6 chain with S68A, G114S, A121T, C122Y, A141S, N172S
modifications: EL7_strain_AMD
notes: natural Gardnerella prophage endolysin from strain AMD

Where a chain is given by its changes, count along the chain named.

For the first experiment, the system named is G. leopoldii strain Gv_11. Kind of experiment: Quantitative reduction in viable CFU assay in bacterial suspension. In kind it is cell-based, Gardnerella leopoldii. The note with it: 5 hours, pH 5.0, anaerobic, 10 ul endolysin (0.2 mg/ml where possible) + 90 ul 5e7 CFU/ml, average of triplicate. How it is done:
(§1) The lysis activity on the four main species of Gardnerella of 91 constructs (natural and domain-swapped endolysins) was quantitatively assessed using the method described in Reference Example 2. Briefly, 90 ul 5e7 CFU/ml of the indicated strain were incubated for 5 hours at pH 5.0 under anaerobic conditions with 10 ul endolysin (concentration adjusted to 0.2 mg/ml where possible, see Table 4).
(§2) The results are shown in FIGS. 8A to 8D together with Tables 5A to 5C. In FIGS. 8A to 8D, the logarithmic Y axis depicts the count of surviving cells. The dotted line indicates the limit of detection (LOD) given by plating of 2 ul of the reaction mix (500 CFU/ml). Each combination of the natural 10 H-domains and the natural 9 B-regions was assessed, including the natural endolysins (H1B1, H2B2, H3B3, etc.), plus H6B6. […] The activity of each construct was measured on each of the 4 main Gardnerella species G. vaginalis sensu stricto, G. leopoldii, G. piotii, and G. swidsinkii. All conditions have been measured in triplicate. The survival after 5 hours incubation at pH 5.0 under anaerobic conditions with endolysins vs. buffer was measured by quantitative plating. The values indicate the log 10 of the ratio of surviving CFU for treated vs. untreated cells. The average of the triplicate measurements is used. In tables 5A and 5B, high negative log 10 values, e.g. −6.7, −5.5, −4.8 etc. are associated with high enzymatic activity, while log 10 values closer to zero or even positive log 10 values are associated with low or no enzymatic activity. […] Inversely, a reduction value of −3.7 means a 10^3.7-fold (=5012-fold) reduction of viable CFU in treated sample vs. untreated control.
(§3) Gardnerella cells were recovered from cryo stock by plating on Chocolate Agar plates (Beckton Dickinson) and incubating for 48 h at 37° C. under anaerobic conditions. For Lactobacilli, BD Schaedler/5% sheep blood agar plates were used instead. Colonies were scraped from the plate, resuspended in Hardy Broth or NYC-III-HS-5.0 at the pH as indicated, and the suspension adjusted to OD (610 or 620 nm as indicated) 0.1. It has to be noted that two Tecan Microplate readers, having respectively a 610 nm or 620 nm filter, have been used interchangeably in the experiments. Although it doesn't make any difference for the experiments, the exact wavelength used is specified in each example. If not stated otherwise, 90 μl cell suspension was mixed with 10 μl endolysin solution, for the different species/endolysin combinations, in 384-well plates. OD(610-620 nm as indicated) was measured at the beginning of the reaction and at the end, either as two measurement points or as a continuous kinetic in a Tecan F200 Microplate reader. The reactions were incubated for 5 hours (or otherwise the time indicated) at 37° C. under anaerobic, micro-aerophilic or aerobic conditions as indicated. Anaerobic conditions intend that oxygen was fully depleted from the container in which the bacteria are incubated (Sigma-Aldrich anaerobic jar or sealable lunch box) with an anaerobic sachet, and the lack of oxygen was confirmed with an anaerobic indicator inside the container. Where micro-aerophilic conditions are indicated, the candle-in-a-jar method was used (tea candle lit in an appropriate sealable container, which reduces oxygen levels until the flame dies out). Then each well was diluted in 5 steps (10^−1 to 10^−5) using 96-U-well bottom plates, and 2 μl of each dilution of each reaction mix are plated on BD Chocolate agar plates or BD Schaedler/5% sheep blood agar plates for Gardnerella and Lactobacilli, respectively, for detecting and quantifying surviving CFU. Detection plates were incubated at 37° C. for 48 hours under anaerobic conditions.
In the case of B1, the “log 10 of the ratio of surviving CFU for treated vs. untreated cells” value (from here on “log 10 of the ratio of surviving CFU”) is on record as −0.5 log 10.
Take B2: the “log 10 of the ratio of surviving CFU” value was −1.6 log 10.
On to B3, for which the “log 10 of the ratio of surviving CFU” value is on record as −1.1 log 10.
In the case of B4, the “log 10 of the ratio of surviving CFU” value is on record as −1.3 log 10.
B5: the “log 10 of the ratio of surviving CFU” value was −2.0 log 10.
On the same count and under the same terms, the figure for B6 is 0.3 log 10; for B7 it is −2.1 log 10.

The next experiment concerns four Gardnerella strains (Gv_9, Gv_11, Gv_17, Gv_23). The experiment is described as follows: CFU reduction averaged across the four Gardnerella strains, with activity ranks. The note with it: pH 5.0, 5 hours, anaerobic. It is filed as cell-based. How it is done: as §1, §2
as §3, with “out).” for “out). Then each well was diluted in 5 steps (10^−1 to 10^−5) using 96-U-well bottom plates, and 2 μl of each dilution of each reaction mix are plated on BD Chocolate agar plates or BD Schaedler/5% sheep blood agar plates for Gardnerella and Lactobacilli, respectively, for detecting and quantifying surviving CFU. Detection plates were incubated at 37° C. for 48 hours under anaerobic conditions.”
With B1, the “average of the log 10 activities of each construct across the four Gardnerella strains” value is reported as −0.8 log 10.
On to B2, for which the “average of the log 10 activities of each construct across the four Gardnerella strains” value is on record as −3.3 log 10.
On to B3, for which the “average of the log 10 activities of each construct across the four Gardnerella strains” value is −2.6 log 10.
Same read-out and setting: for B4 the value was −1.9 log 10; for B5, −3.0 log 10.
Consider B6, for which the “average of the log 10 activities of each construct across the four Gardnerella strains” value was 0.1 log 10.
Regarding B7, the “average of the log 10 activities of each construct across the four Gardnerella strains” value is −2.0 log 10.

Still in this experiment, the particulars now being: rank 1-91, based on the data of Table 5B.
For the molecule B1, the “activity rank of all endolysins” value turned out to be 76.
As for B2, the “activity rank of all endolysins” value stood at 6.
For the molecule B3, the “activity rank of all endolysins” value is listed as 25.
For the molecule B4, the “activity rank of all endolysins” value stood at 44.
Regarding B5, the “activity rank of all endolysins” value is listed as 13.
On the same count and under the same terms, the figure for B6 is 87; for B7 it is 40.

The next experiment deals with G. vaginalis sensu stricto strain Gv_9. Kind of experiment: Quantitative reduction in viable CFU assay in bacterial suspension. The note with it: Gv_9; 5 hours, pH 5.0, anaerobic; 10 ul endolysin (0.2 mg/ml where possible) + 90 ul 5e7 CFU/ml; average of triplicate. In kind it is cell-based, Gardnerella vaginalis sensu stricto. How it is done:
The lysis activity on the four main species of Gardnerella of 91 constructs (natural and domain-swapped endolysins) was quantitatively assessed using the method described in Reference Example 2. […]
as §2, §3
With B1, the “log 10 of the ratio of surviving CFU” value is recorded as −0.4 log 10.
On to B2, for which the “log 10 of the ratio of surviving CFU” value was −3.5 log 10.
With B3, the “log 10 of the ratio of surviving CFU” value was −1.2 log 10.
Take B4: the “log 10 of the ratio of surviving CFU” value is −1.9 log 10.
As to B5, the “log 10 of the ratio of surviving CFU” value is given as −3.0 log 10.
Consider B6, for which the “log 10 of the ratio of surviving CFU” value stood at 0.2 log 10.
For B7, the “log 10 of the ratio of surviving CFU” value is on record as −1.6 log 10.
